According to the supplement of paper PMC9112550, “Optimization of the antimicrobial peptide Bac7 by deep mutational scanning” (BMC Biology, 2022):

Tested on: Escherichia coli TOP10
Experiment: shrunken log2 fold change of peptide-encoding DNA abundance (4.5 h post-induction vs induction); higher = less antimicrobial activity (less host growth inhibition)
Settings: time post-induction: 4.5 h; library: site-saturation at positions 5, 18, 19, 20
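Also: peptides expressed intracellularly from a pBAD plasmid library in pooled LB shake-flask culture, induced with 0.3% L-arabinose, DNA abundance read by NGS, three biological replicates, DESeq2 with apeglm shrinkage.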

Sequence | shrunken log2 fold change
RRIRVRPPRLPRPRPRPAGWPRP | 0.689
RRIRQRPPRLPRPRPRPLRCPRP | 0.244
RRIRERPPRLPRPRPRPAKDPRP | -0.284
RRIRGRPPRLPRPRPRPCMCPRP | 0.263
RRIRWRPPRLPRPRPRPESQPRP | 0.185
RRIRYRPPRLPRPRPRPCSPPRP | -0.0146
RRIRHRPPRLPRPRPRPTYDPRP | -0.0607
RRIRLRPPRLPRPRPRPIRAPRP | 0.301
RRIRYRPPRLPRPRPRPVEMPRP | -1.52
RRIRMRPPRLPRPRPRPNWGPRP | 0.448
RRIRLRPPRLPRPRPRPPRWPRP | 0.408
RRIRDRPPRLPRPRPRPCMHPRP | 0.175
RRIRTRPPRLPRPRPRPKKWPRP | -0.0616
RRIRERPPRLPRPRPRPFETPRP | 0.21
RRIRWRPPRLPRPRPRPYSDPRP | -0.381
RRIRPRPPRLPRPRPRPTSYPRP | -0.0178
RRIRERPPRLPRPRPRPVGCPRP | 0.168
RRIRMRPPRLPRPRPRPSGEPRP | 0.824
RRIRSRPPRLPRPRPRPESNPRP | -0.126
RRIRDRPPRLPRPRPRPEVSPRP | 0.3
RRIRLRPPRLPRPRPRPSAMPRP | -0.347
RRIRARPPRLPRPRPRPFAHPRP | 0.128

Sequence | shrunken log2 fold change
RRIRCRPPRLPRPRPRPFTTPRP | -0.286
RRIRRRPPRLPRPRPRPMQGPRP | 0.031
RRIRWRPPRLPRPRPRPAHGPRP | 0.707
RRIRYRPPRLPRPRPRPSMPPRP | -1.69
RRIRLRPPRLPRPRPRPTKSPRP | 0.127
RRIRYRPPRLPRPRPRPMSPPRP | -0.0952
RRIRYRPPRLPRPRPRPLCMPRP | -0.795
RRIRPRPPRLPRPRPRPAAAPRP | 0.56
RRIRNRPPRLPRPRPRPNGQPRP | -0.0686
RRIRGRPPRLPRPRPRPKKKPRP | 0.354
RRIRDRPPRLPRPRPRPAWVPRP | 0.103
RRIRSRPPRLPRPRPRPVIYPRP | -0.226
RRIRSRPPRLPRPRPRPGNHPRP | -0.311
RRIRIRPPRLPRPRPRPNQFPRP | -0.0326
RRIRERPPRLPRPRPRPWGAPRP | 0.165
RRIRGRPPRLPRPRPRPEFIPRP | 0.131
RRIRMRPPRLPRPRPRPFMEPRP | -0.096
RRIRPRPPRLPRPRPRPKPTPRP | 0.434
RRIRNRPPRLPRPRPRPKVHPRP | 0.0346
RRIRYRPPRLPRPRPRPTLGPRP | -0.16
RRIRVRPPRLPRPRPRPVKSPRP | -0.0272
RRIRCRPPRLPRPRPRPYTDPRP | -0.431

Sequence | shrunken log2 fold change
RRIRFRPPRLPRPRPRPTDFPRP | -0.302
RRIRNRPPRLPRPRPRPSGTPRP | -0.217
RRIRPRPPRLPRPRPRPVISPRP | -0.00579
RRIRKRPPRLPRPRPRPLIHPRP | 1.09
RRIRGRPPRLPRPRPRPASQPRP | 0.76
RRIRFRPPRLPRPRPRPPNGPRP | -0.0591
RRIRRRPPRLPRPRPRPPAGPRP | 0.753
RRIRFRPPRLPRPRPRPLTRPRP | -0.0631
RRIRDRPPRLPRPRPRPHCKPRP | 0.0223
RRIRDRPPRLPRPRPRPFPFPRP | -0.163
RRIRARPPRLPRPRPRPPTAPRP | 0.744
RRIRWRPPRLPRPRPRPDRAPRP | 0.487
RRIRWRPPRLPRPRPRPVAVPRP | 0.465
RRIRDRPPRLPRPRPRPHMWPRP | 0.0299
RRIRTRPPRLPRPRPRPMFQPRP | -0.446
RRIRCRPPRLPRPRPRPCKHPRP | -0.339
RRIRFRPPRLPRPRPRPKWNPRP | -0.217
RRIRVRPPRLPRPRPRPPGHPRP | 0.246
RRIRARPPRLPRPRPRPDNRPRP | 0.0425
RRIRRRPPRLPRPRPRPPCDPRP | 1.03
RRIRGRPPRLPRPRPRPRLGPRP | 0.799
RRIRIRPPRLPRPRPRPDTYPRP | -0.347

Sequence | shrunken log2 fold change
RRIRVRPPRLPRPRPRPHCLPRP | -1.63
RRIRSRPPRLPRPRPRPDDLPRP | 0.0166
RRIRWRPPRLPRPRPRPVRGPRP | 0.538
RRIRERPPRLPRPRPRPHLRPRP | -0.173
RRIRFRPPRLPRPRPRPHVHPRP | -0.0448
RRIRTRPPRLPRPRPRPWGSPRP | 0.0639
RRIRGRPPRLPRPRPRPFNTPRP | -0.309
RRIRRRPPRLPRPRPRPMNEPRP | -0.0251
RRIRWRPPRLPRPRPRPLFVPRP | -0.076
RRIRSRPPRLPRPRPRPGQTPRP | -0.0742
RRIRERPPRLPRPRPRPDTQPRP | -0.116
RRIRKRPPRLPRPRPRPTIIPRP | -0.0974
RRIRPRPPRLPRPRPRPSVYPRP | -0.361
RRIRIRPPRLPRPRPRPLVDPRP | 0.126
RRIRERPPRLPRPRPRPFTVPRP | -0.00987
RRIRPRPPRLPRPRPRPVNAPRP | 0.138
RRIRPRPPRLPRPRPRPYSWPRP | -0.046
RRIRKRPPRLPRPRPRPISYPRP | -0.0078
RRIRARPPRLPRPRPRPFKWPRP | -0.176
RRIRPRPPRLPRPRPRPPVHPRP | -0.0329
RRIRWRPPRLPRPRPRPYHHPRP | -1.02
RRIRPRPPRLPRPRPRPCGAPRP | 0.206

Sequence | shrunken log2 fold change
RRIRLRPPRLPRPRPRPGPYPRP | -0.215
RRIRERPPRLPRPRPRPHKFPRP | -0.984
RRIRRRPPRLPRPRPRPAFPPRP | 0.356
RRIRSRPPRLPRPRPRPHICPRP | -0.127
RRIRSRPPRLPRPRPRPYSGPRP | -0.328
RRIRYRPPRLPRPRPRPSAFPRP | -0.607
RRIRRRPPRLPRPRPRPEGEPRP | 1.17
RRIRARPPRLPRPRPRPQIGPRP | 3.24
RRIRLRPPRLPRPRPRPCHNPRP | 0.0575
RRIRERPPRLPRPRPRPLWFPRP | 0.174
RRIRNRPPRLPRPRPRPAVQPRP | 0.109
RRIRCRPPRLPRPRPRPIPQPRP | 0.153
RRIRFRPPRLPRPRPRPKSCPRP | 0.0245
RRIRCRPPRLPRPRPRPGYGPRP | -0.273
RRIRRRPPRLPRPRPRPMWNPRP | 0.00386
RRIRMRPPRLPRPRPRPSQEPRP | 0.226
RRIRDRPPRLPRPRPRPVFNPRP | -0.353
RRIRMRPPRLPRPRPRPGYGPRP | 0.148
RRIRRRPPRLPRPRPRPGKDPRP | -0.0528
RRIRFRPPRLPRPRPRPEHDPRP | -0.446
RRIRDRPPRLPRPRPRPTFGPRP | 0.228
